Experimental data published in patent US20220289850 (published 2022).
Changes are numbered by the printed parent chain. Several values for one entry are separate records, joined by “and”; a condition that tells them apart may be missing. Identical values can stand only once. One block for each binder: values may come before it.

Tests used:
human integrin avb8 [1] = target: T1, human integrin avb8 (human); experiment: SPR
T1 chain 1: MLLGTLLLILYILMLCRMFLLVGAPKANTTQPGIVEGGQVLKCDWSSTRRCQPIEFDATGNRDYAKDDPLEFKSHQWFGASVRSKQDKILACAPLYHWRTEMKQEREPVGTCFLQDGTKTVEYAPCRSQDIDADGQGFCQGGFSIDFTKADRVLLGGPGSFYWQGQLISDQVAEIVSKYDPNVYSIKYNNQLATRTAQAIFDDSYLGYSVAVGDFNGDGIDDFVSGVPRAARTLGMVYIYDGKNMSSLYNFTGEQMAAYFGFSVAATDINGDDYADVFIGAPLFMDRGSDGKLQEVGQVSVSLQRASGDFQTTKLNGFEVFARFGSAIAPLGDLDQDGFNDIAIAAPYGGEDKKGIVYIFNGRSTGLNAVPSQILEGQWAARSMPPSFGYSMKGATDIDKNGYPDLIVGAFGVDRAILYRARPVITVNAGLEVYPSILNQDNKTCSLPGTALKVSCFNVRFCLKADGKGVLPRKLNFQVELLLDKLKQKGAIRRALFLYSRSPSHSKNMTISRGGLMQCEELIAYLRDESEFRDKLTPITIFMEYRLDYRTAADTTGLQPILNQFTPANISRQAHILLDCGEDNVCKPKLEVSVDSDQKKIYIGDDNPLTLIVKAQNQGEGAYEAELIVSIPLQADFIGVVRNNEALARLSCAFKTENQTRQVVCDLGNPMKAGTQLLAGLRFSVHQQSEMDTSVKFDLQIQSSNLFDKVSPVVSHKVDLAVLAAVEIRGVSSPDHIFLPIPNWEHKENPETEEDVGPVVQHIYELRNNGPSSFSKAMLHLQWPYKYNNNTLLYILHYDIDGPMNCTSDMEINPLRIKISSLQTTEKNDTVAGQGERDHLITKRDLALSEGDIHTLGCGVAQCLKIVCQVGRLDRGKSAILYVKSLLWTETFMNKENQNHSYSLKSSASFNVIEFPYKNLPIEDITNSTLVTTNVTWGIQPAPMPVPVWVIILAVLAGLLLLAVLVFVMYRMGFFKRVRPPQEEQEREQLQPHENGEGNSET
T1 chain 2: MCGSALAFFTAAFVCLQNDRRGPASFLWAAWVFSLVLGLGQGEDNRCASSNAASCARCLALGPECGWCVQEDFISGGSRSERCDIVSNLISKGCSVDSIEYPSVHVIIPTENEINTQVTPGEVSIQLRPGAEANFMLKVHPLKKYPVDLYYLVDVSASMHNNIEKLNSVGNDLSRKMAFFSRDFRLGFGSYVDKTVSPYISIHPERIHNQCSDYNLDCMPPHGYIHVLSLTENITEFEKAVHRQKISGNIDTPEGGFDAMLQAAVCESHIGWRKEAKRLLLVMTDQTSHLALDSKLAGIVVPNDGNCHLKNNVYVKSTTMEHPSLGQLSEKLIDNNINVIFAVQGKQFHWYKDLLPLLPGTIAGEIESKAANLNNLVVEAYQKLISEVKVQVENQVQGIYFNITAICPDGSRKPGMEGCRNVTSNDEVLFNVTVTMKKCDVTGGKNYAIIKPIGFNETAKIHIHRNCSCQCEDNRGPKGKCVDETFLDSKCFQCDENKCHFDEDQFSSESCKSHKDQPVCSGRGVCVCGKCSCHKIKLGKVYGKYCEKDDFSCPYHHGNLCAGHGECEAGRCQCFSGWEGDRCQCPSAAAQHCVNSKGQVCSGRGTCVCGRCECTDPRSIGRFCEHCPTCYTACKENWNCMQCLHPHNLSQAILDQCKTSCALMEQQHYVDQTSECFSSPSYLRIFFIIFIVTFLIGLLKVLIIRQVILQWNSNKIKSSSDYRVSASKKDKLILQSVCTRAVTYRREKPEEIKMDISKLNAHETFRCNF

human integrin avb8 [2] = target: T1, human integrin avb8; experiment: SPR 25C

Kd (human integrin avb8 [1]): < 0.1 nM | Kd (human integrin avb8 [2]): 0.209 nM and 0.118 nM
B1: ADWA11 VH05/VK01 (VH05-2_VK01) Fab (antibody, V domains shown)
VH: EVQLVESGGGLVQPGGSLRLSCAASGFNIKDYYMNWVRQAPGKGLEWVGWIDPDNGNTIYDPKFQGRFTISADTSKNSAYLQMNSLRAEDTAVYYCARRLLMDYWGQGTLVTVSS
VL: DIQMTQSPSSLSASVGDRVTITCRSTKSLLHFNGNTYLFWYQQKPGKAPKRLIYYMSNLASGVPSRFSGSGSGTDFTLTISSLQPEDFATYYCMQSLEYPFTFGQGTKVEIK

Kd (human integrin avb8 [2]): < 0.2 nM
B2: ADWA11 2.4 Fab (antibody, V domains shown)
VH: B1 VH with N55Q, D61E
VL: B1 VL with L30S, N58S, M94Q, Q105G

Kd (human integrin avb8 [1]): 0.536 nM | Kd (human integrin avb8 [2]): 0.536 nM
B3: Mouse hybridoma ADWA-11 Fab (antibody, V domains shown)
VH: EVQLQQSGAELVRPGAFVKLSCKASGFNIKDYYMNWVLQRPEQGLEWIGWIDPDNGNTIYDPKFQGKASITADTSSNTAYLQLSSLTSEDTAVYYCARRLLMDYWGQGTSVTVSS
VL: DIVMTQAAPSVPVTPGESVSISCRSTKSLLHFNGNTYLFWFLQRPGQSPQRLIYYMSNLASGVPDRFSGRGSGTDFTLRISRVEAEDVGVYYCMQSLEYPFTFGTGTKLEIK
